The values below come from publication PMC6529640, “Bacterioferritin of Magnetospirillum gryphiswaldense Is a Heterotetraeicosameric Complex Composed of Functionally Distinct Subunits but Is Not Involved in Magnetite Biomineralization” (mBio, 2019).

The data set concerns the molecule itself. The data set can be described thus: native gel or EMSA; BN-PAGE of purified proteins on polyacrylamide gradient gels, run at 4°C, Coomassie stained; Bfr2 and Bfr12 ~22 μM, Bfr1 ~30 μM in 50 mM Tris-HCl, 50 mM NaCl, pH 8.0, or Bfr12 dialysed against 50 mM imidazole-HCl, 50 mM NaCl, pH 7; for Bfr12 also a second dimension of SDS-PAGE (2D-BN/SDS-PAGE). A general note: In EMSA bound probe runs differently from free probe, usually more slowly.

B1: Bfr1 of MSR-1 expressed alone from pET-51b-Bfr1 (natural protein, Magnetospirillum gryphiswaldense MSR-1, UniProt A0ACM8UIY5 1-159, looked up)
chain: MRGSPKVISVLNGLLTGELTAADQYFVHARMLENWGFKVLYERIEHERHDELDHAGLLINRILFLEGVPDVASRAALNIGSDVPKMMANDLAYELQVVDELKAAIALCESERDYDTRRILVHLLEETEQDHVRWLEVQVGLIDKLGLKNYLQSAAGEIA
notes: bacterioferritin subunit Bfr1, Magnetospirillum gryphiswaldense MSR-1, locus MSR1_27050; expressed without Bfr2
Regarding B1, the stoichiometry N – broadly, the number of molecules, sites or subunits per partner or assembly – was 3.
